The source of these data is PMC2944805, “A Major Determinant of Cyclophilin Dependence and Cyclosporine Susceptibility of Hepatitis C Virus Identified by a Genetic Approach” (PLoS Pathogens, 2010).

This experiment has as its target T1, 15N-labeled human CyPA (human, UniProt P62937 1-165, 15N-labeled).
T1 construct: human cyclophilin A (CyPA); also called cyclophilin A
Briefly: NMR titration; peptide added stepwise to 15N-labeled CyPA (~0.5 mM); 2D 1H,15N-HSQC, 22°C; 50 mM NaH2PO4/Na2PO4, pH 6.3, 40 mM NaCl, 2 mM EDTA, 1 mM DTT. The note with it: both partners purified.

B1: synthetic WT peptide, residues 304-323 of NS5A (peptide)
peptide: GFPRALPAWARPDYNPPLVE
notes: residues 304-323 of NS5A of HCV JFH-1 (genotype 2a); numbers count on: NS5A itself, not the polyprotein; also called 20-mer peptide (G304-E323); source: synthetic peptide, bought: NEO BioScience
As for B1, the binding result is given as “binds”.
